This note sets out measurements from EP3145530B1.

One test addresses TRAIL-R1/DR4 (human) (UniProt O00220). Briefly: cell-based or functional assay.
Another test has as its target TRAIL-R2/DR5 (human) (UniProt O14763). Briefly: cell-based or functional assay.
Chain of UniProt O14763 (O14763 56-440): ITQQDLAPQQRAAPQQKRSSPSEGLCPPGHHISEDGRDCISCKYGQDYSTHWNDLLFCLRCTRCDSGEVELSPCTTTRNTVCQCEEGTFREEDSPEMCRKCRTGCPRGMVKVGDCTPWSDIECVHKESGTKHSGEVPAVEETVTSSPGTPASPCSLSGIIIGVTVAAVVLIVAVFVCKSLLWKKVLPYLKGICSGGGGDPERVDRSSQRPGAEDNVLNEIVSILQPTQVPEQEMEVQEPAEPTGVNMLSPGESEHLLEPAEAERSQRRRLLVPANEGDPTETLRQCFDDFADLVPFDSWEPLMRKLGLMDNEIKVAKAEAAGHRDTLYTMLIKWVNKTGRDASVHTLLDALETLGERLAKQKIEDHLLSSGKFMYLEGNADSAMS

Chain of UniProt O00220 (O00220 24-468): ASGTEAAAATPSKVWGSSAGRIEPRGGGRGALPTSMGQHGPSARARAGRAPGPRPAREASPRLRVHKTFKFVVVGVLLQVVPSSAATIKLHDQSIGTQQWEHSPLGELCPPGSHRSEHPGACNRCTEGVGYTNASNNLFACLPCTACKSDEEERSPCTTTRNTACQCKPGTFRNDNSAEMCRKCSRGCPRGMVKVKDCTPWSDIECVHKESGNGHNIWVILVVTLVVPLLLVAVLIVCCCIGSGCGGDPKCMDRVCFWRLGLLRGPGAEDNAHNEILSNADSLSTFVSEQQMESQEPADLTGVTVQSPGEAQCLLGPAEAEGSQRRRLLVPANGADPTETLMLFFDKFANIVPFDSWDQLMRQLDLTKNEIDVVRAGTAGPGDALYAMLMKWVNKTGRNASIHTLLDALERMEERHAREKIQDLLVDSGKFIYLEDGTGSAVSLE

As to “TRAIL (TNF-related apoptosis-inducing ligand)”, in the test with TRAIL-R1/DR4 (human), the fold increase in induced cell death (MTT, 3 h) of human primary HSCs treated at day 7 versus day 1 was found to be 4.5 fold; the fold increase in induced cell death (MTT, 3 h) of human primary HSCs treated at day 14 versus day 1 came to 7.5 fold; the fold increase in induced cell death (MTT, 3 h) of human primary PSCs from day 1 to day 14 amounted to 5.5 fold. In the test with TRAIL-R2/DR5 (human), this substance showed a fold increase in induced cell death (MTT, 3 h) of human primary HSCs treated at day 7 versus day 1 of 4.5 fold; a fold increase in induced cell death (MTT, 3 h) of human primary HSCs treated at day 14 versus day 1 of 7.5 fold; a fold increase in induced cell death (MTT, 3 h) of human primary PSCs from day 1 to day 14 of 5.5 fold.
